Experimental findings from the DeepSol protein solubility set are described below.

The nature of the data set: soluble on expression in E. coli; label from the status in PepcDB or PDB records.
“MAMVVSSWRDPQDDVAGGNPGGPNPAAQAARGGGGGAGEQQQQAGSGAPHTPQTPGQPGAPATPGTAGDKGQGPPGSGQSQQHIECVVCGDKSSGKHYGQFTCEGCKSFFKRSVRRNLTYTCRANRNCPIDQHHRNQCQYCRLKKCLKVGMRREAVQRGRMPPTQPNPGQYALTNGDPLNGHCYLSGYISLLLRAEPYPTSRYGSQCMQPNNIMGIENICELAARLLFSAVEWARNIPFFPDLQITDQVSLLRLTWSELFVLNAAQCSMPLHVAPLLAAAGLHASPMSADRVVAFMDHIRIFQEQVEKLKALHVDSAEYSCLKAIVLFTSDACGLSDAAHIESLQEKSQCALEEYVRSQYPNQPSRFGKLLLRLPSLRTVSSSVIEQLFFVRLVGKTPIETLIRDMLLSGSSFNWPYMSIQCS”: the “soluble on expression in E. coli” value is “soluble”. For “MRAVIPYKKAGAKSRLSPVLSLQEREEFVELMLNQVISSLKGAGIEQVDILSPSVYGLEEMTEARVLLDEKDLNEALNRYLKEAEEPVLIVMADLPLLSPEHIKEISSTEKDVCIVPGKGGGTNALFIKNPSKYRVKYYGSSFLTHCSIATDSGQDFEIYDSFMAGTDIDEPEDLVELLIHGKGAAKDYIESKFRLEVKKGRVGLVPL” the value was “soluble”.

In the case of “MQTLQEILQQPELENKLLNQAKTVGFVTAMACCPNVLPPEEWLPFLWGGEEIAPFSDPIQLENYFEHIIALWNETRSQLLEGNWQWPTGYLLDEAEIVNQEVRDFCEGMLQGWQLARDDWEVLMPENSSDNTLLGGVLLSLSMLYDPETSIATLYEQGFTGLEQFAEIYHAIPVMLCGITQRGVTLAEAQ”, the “soluble on expression in E. coli” value is recorded as “not soluble”. For “MNTQYLQYVREQLMVATADLSGETKGQLLAWLENAQFDTKNYPRKKQRIWDEETESWITLNNPPIPGKQSLAKGSAIPLVKPVEYSTASWRRAVLSLDEHYKAWLLWNYSENTCWEHQVEITQWGWSAFAAQLDGKKMAGKTQERLRALIWLAAQDVKSELAGREVYQYKELAGLVGVSEKNWSETFTRHWLTMRAIFLRLDQASLLSVSESRSEQVAFNLYALN” the value was “not soluble”; for “MSVLNPCMTCGACCAYFRVSFYWAEGDDASGRVPASLTEPVTPFLRCMAGTNQKQPHCKALIGTPGENVSCAIYENRPSTCREFSISGEGGEVNEACNRARARYGLPPLYKDMLFHTTADAATVELSRVQLPANLEHHHHHH”, “not soluble”; for “MKHHHHHPMVPSYDSFDSEDYPAALPNHKPKGTFKDYVRDRADLNKDKPVIPAAALAGYTGSGPIQLWQFLLELLTDKSSQSFISWTGDGWEFKLSDPDEVARRWGKRKNKPKMNYEKLSRGLRYYYDKNIIHKTAGKRYVYRFVSDLQSLLGYTPEELHAMLDVKPDADE”, “soluble”. For “MGSDKIHHHHHHMWYMRWEGVSDGLKVTAGSVIQRDDLVQYTTTDDATSSGGVLRVPIACSSAGAVGNADDGTALILVTPVNGLPSSGVADTLTGGFDTEELETWRARVIERYYWTPQGGADGDYVVWAKEVPGITRAWTYRHLMGTGTVGVMIASSDLINPIPEESTETAARQHIGPLAPVAGSDLYVFRPVAHTVDFHIRVTPDTPEIRAAITAELRSFLLRDGYPQGELKVSRISEAISGANGEYSHQLLAPVDNISIAKNELAVLGTISWT” the value was “not soluble”; for “MGSDKIHHHHHHMNSSVKTRILQPLRIGKHIARHPIIQGAMAVRVSGAKLAGAVANAGGVGVIASLGLGLDSPYFDKRKKRSFFTANRLALIDELAKARSISPDGVIGVNILVATKDYSVLAQTAAAQGADIIITGAGLPLALPEYTAAYPDVALVPSVANLEAAQLICETWQSRYHRLPDALIVENCQQVGGHFTQCEQVNIPGFSLELVIRQLRDYCQNHLGARIPLIVSGGISDRTDIDRMIAIGADGVQIGTRFVTTVECDADQRYKDYHLQAQPEDIVTVPSPVGKPSRALHNLFTEQVMSNSSNLEKRCIANCLETCLCRDHGKTYCLLQALAQAARGDVENGLIFSGANAGYTQDIISVPELMTELTQAHTIEVSSSDKY”, “not soluble”. As to “MPNHQPVKKFKIIGGACKGLGLNLPNISSTRPTKAIVRESFFNTLQAEINGAHFIEVFSGSASMGLEALSRGAKSAVFFEQNKSAYKTLLENISLFKNRLKKEMEIQTFLDDAFKLLPTLCLKNGVLNIIYLDPPFETSGFLGIYEKCFQALERLLKRFNPKNLLVVFEHESMHEMPKSLVTLAIIKQKKFGKTTLTYFQLEHHHHHH”, the “soluble on expression in E. coli” value was “soluble”.

On to “MLCDSLPTASRTAAAILNLAQREDVTAEALAQLIQTDPALTGRILRFANAPAQGTRRPVASVIDAIDLVGLPAVRQFALSLSLIDAHREGRCEAFDYAAYWQKSLARAVALQSITAQASTVAPKEAFTLGLLADVGRLALATAWPEEYSECLRKADGEALIALERERFATDHDELTRMLLTDWGFPQVFIDALQLSQQDEIRDEGRTGRFARQLALAQHIADHRLAEEPRRAALSPLLRAEARRCGLGDEDLARLLADPPADWLDWTRTIGLPGDAPTGGAEPSRPPPQTDEKLHVLLADDDPIMLARLSRQLEADGHHVASRRDGETALAYALEHQPEMVITDWHMKPMNGLELCRALRESALGGNVYIVMLTASESEDALVEAFGAGIDDYVIKPPSVRVLKARIRAGQRIITLHKKLARERKEIERYSSELAAANRRLELMAHTDQLTGLPNRRYAMDRLEREWAQARTFDRPLSIMMLDLDWFKSINDSLGHDAGDQALVHAARVMRETVRTSDVVCRMGGEEFLIIIPDTAGPAAIQTAERVRSAVEQQQPAKLKLSRPLTASIGVADSTSAPSLKDLLLKADNALYQVKQNGRNGVRYAGLAAALEHHHHHH”, for which the “soluble on expression in E. coli” value is on record as “soluble”. The result for “MGLIFAKLWSLFCNQEHKVIIVGLDNAGKTTILYQFLMNEVVHTSPTIGSNVEEIVVKNTHFLMWDIGGQESLRSSWNTYYSNTEFIILVVDSIDRERLAITKEELYRMLAHEDLRKAAVLIFANKQDMKGCMTAAEISKYLTLSSIKDHPWHIQSCCALTGEGLCQGLEWMTSRIGVR” reads “soluble”. For “MAQHGALETLKDLAEKEVDDAARLLGEMRRGCQQAEEQLKMLIDYQNEYRSNLNTDMGNGIASNRWINYQQFIQTLEKAIEQHRLQLTQWTQKVDLALKSWREKKQRLQAWQTLQDRQTAAALLAENRMDQKKMDEFAQRAAMRKPE” the value was “not soluble”; for “MAHHHHHHSLALIVKIGGSIQKDEKDYELIVKKIQDFSKKSDKIIVVTSAIKNVTNELISATSNTDNSPNIVTEIYERHIKLLSKLADGKEFENSFKDISRLSDELFRVAWSIRVLDEVTPRVRDYILSFGERMATLLLSAILRSNGIEAEGIITPPFLTDENYGEANVIEDLSKNEIANILENAKANVIVLPGFIGRTREGRYTTLGRGGSDYTATLLGKLVGVREVRLVTEVPGIMTGDPKKFENAKTISRLSLEEAIELSQLGAKRLHPRTFDPVFGSDMKVIVESLYEDGFTIINGECQNNDGLKGISLLDNAKLITVESTKIVGKIGSAARITNEAKEAGVNIISISQPASETTIQLVVDSLSANRLLSKLEEIRGTLVKDIEVNDINIVGIVGCGIKKKEISTKVLSIASSYDPLAISRGISNVSMTFIVNKDEGEKLAKELHKVIVSGEG”, “soluble”. For “MAHHHHHHMEASAPGKVLILGSYLIVESCTPANVGISIGVNARFTTRIVKAEPTTTGASGKTTIHMRSPQFRQSFCFVANTSAPGTVAVKQTEGPGSPFIFNAVLYSVAAAQSLGSSTDGEIWVELLADNDFYSQRNYLESQGKDVNVANLRSLPPHLPLVGAISKTGLGSSAAMTTSIVACLCHHFNADGCSHEYVHRIAQIAHSVTQGKIGSGFDVYTAVYGTCAYRRFPVSRVSMMMMASAQPPSSVEVETLRRCVDMNEVWVPPESFRLPPGVKLVLGDVHQGGSCTPGMVAKIMAWRKSVADTPDNLWEQLRRNNEAYIAALRRMIDEAAAKPDVYAASMAALQQVPSLPLFRADGESMQCIVEASRFAARSRALLRDMGVAAEVKVEPVELTDLLDDTATLPGVFAVGCPGAGGYDAVFALVLGDECAAAVEAFWEHYTKMNVCPLLVREDPSGLLIQPPP” the value was “soluble”. In the case of “MSMLKPSGLKAPTKILKPGSTALKTPTAVVAPVEKTISSEKASSTPSSETQEEFVDDFRVGERVWVNGNKPGFIQFLGETQFAPGQWAGIVLDEPIGKNDGSVAGVRYFQCEPLKGIFTRPSKLTRKVQAEDEANGLQTTPASRATSPLCTSTASMVSSSPSTPSNIPQKPSQPAAKEPSATPPISNLTKTASESISNLSEAGSIKKGERELKIGDRVLVGGTKAGVVRFLGETDFAKGEWCGVELDEPLGKNDGAVAGTRYFQCQPKYGLFAPVHKVTKIGFPSTTPAKAKANAVRRVMATTSASLKRSPSASSLSSMSSVASSVSSRPSRTGLLTETSSRYARKISGTTALQEALKEKQQHIEQLLAERDLERAEVAKATSHVGEIEQELALARDGHDQHVLELEAKMDQLRTMVEAADREKVELLNQLEEEKRKVEDLQFRVEEESITKGDLETQTKLEHARIKELEQSLLFEKTKADKLQRELEDTRVATVSEKSRIMELEKDLALRVQEVAELRRRLESNKPAGDVDMSLSLLQEISSLQEKLEVTRTDHQREITSLKEHFGAREETHQKEIKALYTATEKLSKENESLKSKLEHANKENSDVIALWKSKLETAIASHQQAMEELKVSFSKGLGTETAEFAELKTQIEKMRLDYQHEIENLQNQQDSERAAHAKEMEALRAKLMKVIKEKENSLEAIRSKLDKAEDQHLVEMEDTLNKLQEAEIKKEKFAEASEEAVSVQRSMQETVNKLHQKEEQFNMLSSDLEKLRENLADMEAKFREKDEREEQLIKAKEKLENDIAEIMKMSGDNSSQLTKMNDELRLKERDVEELQLKLTKANENASFLQKSIEDMTVKAEQSQQEAAKKHEEEKKELERKLSDLEKKMETSHNQCQELKARYERATSETKTKHEEILQNLQKTLLDTEDKLKGAREENSGLLQELEELRKQAEKAKAAQTAEDAMQIMEQMTKEKTETLASLEDTKQTNAKLQNELDTLKENNLKNVEELNKSKELLTVENQKMEEFRKEIETLKQAAAQKSQQLSALQEENVKLAEELGRSRDEVTSHQKLEEERSVLNNQLLEMKKRESKFIKDADEEKASLQKSISITSALLTEKDAELEKLRNEVTVLRGENASAKSLHSVVQTLESDKVKLELKVKNLELQLKENKRQLSSSSGNTDTQADEDERAQESQQMIDFLNSVIVDLQRKNQDLKMKVEMMSEAALNGNGDDLNNYDSDDQEKQSKKKPRLFCDICDCFDLHDTEDCPTQAQMSEDPPHSTHHGSRGEERPYCEICEMFGHWATNCNDDETF”, the “soluble on expression in E. coli” value is “soluble”. For “HHHHHHSSGLVPRGSHMRNYCTKTFGSAFSVTVVPTLKDNFSYLINDHTTHTLAAVDVNADYKPILTYIEEHLKQQGNADVTYTFSTILSTHKHWDHSGGNAKLKAELEAMNSTVPVVVVGGANDSIPAVTKPVREGDRVQVGDLSVEVIDAPCHTRGHVLYKVQHPQHPNDGVALFTGDTMFIAGIGAFFEGDEKDMCRAMEKVYHIHKGNDYALDKVTFIFPGHEYTSGFMTFSEKTFPDRASDDLAFIQAQRAKYAAAVKTGDPSVPSSLAEEKRQNLFLRVADPAFVAKMNQGNAHALMMYLYNACD” the value was “soluble”; for “FLDGIDKAQEEHEKYHSNWRAMASDFNLPPVVAKEIVASCDKCQLKGEAMHGQVDCSPGIWQLDCTHLEGKVILVAVHVASGYIEAEVIPAETGQETAYFLLKLAGRWPVKTVHTDNGSNFTSTTVKAACDWAGIKQEDGIPYNPQSQGVIESMNKELKKIIGQVRDQAEHLKTAVQMAVFIHNKKRKGGIGGYSAGERIVDIIATDIQTKELQKQITKIQNFRVYYRDSRDPVWKGPAKLLWKGEGAVVIQDNSDIKVVPRRKAKIIRDYGKQMAGDDCVASRQDED”, “soluble”; for “MLKSLQIPVEKLTSKGIKSAEDRITWVKREIGRLPEKEEVFNAILEALKEELGIEPYWGELTKEELELFEEKKDYFKSDEWIYHVKKAITGDEILYGIYRCPGGTFRVSAKVDPQTKVLQQVIINGDFFINPKRLIYDLEAYLKHTPVQEVEKRIREFFKEREFESVNLTVDDFVEA”, “soluble”.
